In IntAct's records for PubMed 29892012:

B1: Isoform 2 of Synaptoporin (Homo sapiens), Q8TBG9-2 (parent)
chain: MDPVSQLASAGTFRVLKEPLAFLRALELLFAIFAFATCGGYSGGLRLSVDCVNKTESNLSIDIAFAYPFRLHQVTFEVPTCEGKERQKLALIGDSSSSAEFFVTVAVFAFLYSLAATVVYIFFQNKYRENNRGPLIDFIVTVVFSFLWLVGSSAWAKGLSDVKVATDPKEVLLLMSACKQPSNKCMAIHSPVMSSLNTSVVFGFLNFILWAGNIWFVFKETGWHSSGQRYLSDPMEKHSSSYNQGGYNQDSYGSSSGYSQQASLGPTSDEFGQQPTGPTSFTNQI
B2: E3 ubiquitin-protein ligase LNX (Homo sapiens), Q8TBB1 (parent)
chain: MNQPESANDPEPLCAVCGQAHSLEENHFYSYPEEVDDDLICHICLQALLDPLDTPCGHTYCTLCLTNFLVEKDFCPMDRKPLVLQHCKKSSILVNKLLNKLLVTCPFREHCTQVLQRCDLEHHFQTSCKGASHYGLTKDRKRRSQDGCPDGCASLTATAPSPEVSAAATISLMTDEPGLDNPAYVSSAEDGQPAISPVDSGRSNRTRARPFERSTIRSRSFKKINRALSVLRRTKSGSAVANHADQGRENSENTTAPEVFPRLYHLIPDGEITSIKINRVDPSESLSIRLVGGSETPLVHIIIQHIYRDGVIARDGRLLPGDIILKVNGMDISNVPHNYAVRLLRQPCQVLWLTVMREQKFRSRNNGQAPDAYRPRDDSFHVILNKSSPEEQLGIKLVRKVDEPGVFIFNVLDGGVAYRHGQLEENDRVLAINGHDLRYGSPESAAHLIQASERRVHLVVSRQVRQRSPDIFQEAGWNSNGSWSPGPGERSNTPKPLHPTITCHEKVVNIQKDPGESLGMTVAGGASHREWDLPIYVISVEPGGVISRDGRIKTGDILLNVDGVELTEVSRSEAVALLKRTSSSIVLKALEVKEYEPQEDCSSPAALDSNHNMAPPSDWSPSWVMWLELPRCLYNCKDIVLRRNTAGSLGFCIVGGYEEYNGNKPFFIKSIVEGTPAYNDGRIRCGDILLAVNGRSTSGMIHACLARLLKELKGRITLTIVSWPGTFL
partner: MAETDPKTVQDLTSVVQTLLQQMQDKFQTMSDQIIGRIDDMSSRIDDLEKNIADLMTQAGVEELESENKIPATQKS
B3: E3 ubiquitin-protein ligase LNX (Homo sapiens), Q8TBB1 (parent)
chain: B2 chain
partner: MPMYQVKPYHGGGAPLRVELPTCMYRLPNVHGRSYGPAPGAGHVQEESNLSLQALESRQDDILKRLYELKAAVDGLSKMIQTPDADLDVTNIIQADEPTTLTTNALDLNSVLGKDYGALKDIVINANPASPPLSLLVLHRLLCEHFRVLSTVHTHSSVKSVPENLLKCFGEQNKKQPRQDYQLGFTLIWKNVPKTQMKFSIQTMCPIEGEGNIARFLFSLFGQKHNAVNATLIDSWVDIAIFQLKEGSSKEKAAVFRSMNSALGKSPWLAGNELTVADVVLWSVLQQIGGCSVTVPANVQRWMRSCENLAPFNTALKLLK
B4: E3 ubiquitin-protein ligase LNX (Homo sapiens), Q8TBB1 (parent)
chain: B2 chain
partner: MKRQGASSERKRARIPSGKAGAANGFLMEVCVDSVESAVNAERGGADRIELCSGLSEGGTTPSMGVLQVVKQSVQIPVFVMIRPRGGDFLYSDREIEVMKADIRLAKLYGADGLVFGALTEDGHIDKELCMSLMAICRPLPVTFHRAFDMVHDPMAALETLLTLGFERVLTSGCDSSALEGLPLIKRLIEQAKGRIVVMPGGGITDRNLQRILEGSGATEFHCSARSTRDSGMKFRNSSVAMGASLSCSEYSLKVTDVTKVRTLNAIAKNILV
B5: E3 ubiquitin-protein ligase LNX (Homo sapiens), Q8TBB1 (parent)
chain: B2 chain
partner: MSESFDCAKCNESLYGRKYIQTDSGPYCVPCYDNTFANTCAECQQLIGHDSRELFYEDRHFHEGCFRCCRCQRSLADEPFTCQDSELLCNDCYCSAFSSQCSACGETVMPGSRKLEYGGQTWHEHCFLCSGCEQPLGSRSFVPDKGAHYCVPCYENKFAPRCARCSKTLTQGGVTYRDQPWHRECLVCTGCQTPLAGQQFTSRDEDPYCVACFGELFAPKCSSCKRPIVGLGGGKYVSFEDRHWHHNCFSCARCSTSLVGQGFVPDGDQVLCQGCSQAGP
B6: E3 ubiquitin-protein ligase LNX (Homo sapiens), Q8TBB1 (parent)
chain: B2 chain
partner: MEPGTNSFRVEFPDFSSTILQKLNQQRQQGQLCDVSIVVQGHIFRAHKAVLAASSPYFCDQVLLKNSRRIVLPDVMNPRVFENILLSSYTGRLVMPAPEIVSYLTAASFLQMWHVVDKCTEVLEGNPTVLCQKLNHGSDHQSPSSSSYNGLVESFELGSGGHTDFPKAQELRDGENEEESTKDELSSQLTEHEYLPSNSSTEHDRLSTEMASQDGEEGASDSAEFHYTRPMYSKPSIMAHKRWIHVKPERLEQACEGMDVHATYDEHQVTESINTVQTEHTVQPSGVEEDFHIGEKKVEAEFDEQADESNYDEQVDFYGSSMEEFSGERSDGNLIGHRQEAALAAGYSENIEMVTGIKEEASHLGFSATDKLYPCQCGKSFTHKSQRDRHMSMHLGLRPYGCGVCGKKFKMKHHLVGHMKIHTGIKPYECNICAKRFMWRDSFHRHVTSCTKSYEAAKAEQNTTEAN
B7: Abl interactor 2 (Homo sapiens), Q9NYB9 (parent)
chain: MAELQMLLEEEIPGGRRALFDSYTNLERVADYCENNYIQSADKQRALEETKAYTTQSLASVAYLINTLANNVLQMLDIQASQLRRMESSINHISQTVDIHKEKVARREIGILTTNKNTSRTHKIIAPANLERPVRYIRKPIDYTILDDIGHGVKWLLRFKVSTQNMKMGGLPRTTPPTQKPPSPPMSGKGTLGRHSPYRTLEPVRPPVVPNDYVPSPTRNMAPSQQSPVRTASVNQRNRTYSSSGSSGGSHPSSRSSSRENSGSGSVGVPIAVPTPSPPSVFPAPAGSAGTPPLPATSASAPAPLVPATVPSSTAPNAAAGGAPNLADGFTSPTPPVVSSTPPTGHPVQFYSMNRPASRHTPPTIGGSLPYRRPPSITSQTSLQNQMNGGPFYSQNPVSDTPPPPPPVEEPVFDESPPPPPPPEDYEEEEAAVVEYSDPYAEEDPPWAPRSYLEKVVAIYDYTKDKEDELSFQEGAIIYVIKKNDDGWYEGVMNGVTGLFPGNYVESIMHYSE
partner: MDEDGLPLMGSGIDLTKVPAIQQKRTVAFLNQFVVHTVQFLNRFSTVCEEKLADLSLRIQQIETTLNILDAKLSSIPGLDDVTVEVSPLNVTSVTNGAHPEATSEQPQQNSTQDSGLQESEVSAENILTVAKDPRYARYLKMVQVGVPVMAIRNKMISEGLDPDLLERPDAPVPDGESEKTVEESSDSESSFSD
B8: E3 ubiquitin-protein ligase DZIP3 (Homo sapiens), Q86Y13 (parent)
chain: MDSLPDEFFVRHPAVEDQRKEETENKLEKSSGQLNKQENDIPTDLVPVNLLLEVKKLLNAINTLPKGVVPHIKKFLQEDFSFQTMQREVAANSQNGEEIVPALTLRFLITQLEAALRNIQAGNYTAHQINIGYYLTLLFLYGVALTERGKKEDYTEAENKFLVMKMMIQENEICENFMSLVYFGRGLLRCAQKRYNGGLLEFHKSLQEIGDKNDHWFDIDPTEDEDLPTTFKDLLNNFIKTTESNIMKQTICSYLDCERSCEADILKNTSYKGFFQLMCSKSCCVYFHKICWKKFKNLKYPGENDQSFSGKKCLKEGCTGDMVRMLQCDVPGIVKILFEVVRKDEYITIENLGASYRKLISLKITDTDIRPKISLKFNTKDEMPIFKLDYNYFYHLLHIIIISGTDIVRQIFDEAMPPPLLKKELLIHKNVLESYYNHLWTNHPLGGSWHLLYPPNKELPQSKQFDLCLLLALIKHLNVFPAPKKGWNMEPPSSDISKSADILRLCKYRDILLSEILMNGLTESQFNSIWKKVSDILLRLGMMQEDIDKVKENPIENISLDYHQLSVYLGIPVPEIIQRMLSCYQQGIALQSITGSQRIEIEELQNEEEELSPPLMEYNINVKSHPEIQFAEINKDGTSIPSESSTESLKDLQEVKSKQRKKKKTKNKKNKDSKEDQVPYVVEKEEQLRKEQANPHSVSRLIKDDASDVQEDSAMEDKFYSLDELHILDMIEQGSAGKVTTDYGETEKERLARQRQLYKLHYQCEDFKRQLRTVTFRWQENQMQIKKKDKIIASLNQQVAFGINKVSKLQRQIHAKDNEIKNLKEQLSMKRSQWEMEKHNLESTMKTYVSKLNAETSRALTAEVYFLQCRRDFGLLHLEQTEKECLNQLARVTHMAASNLESLQLKAAVDSWNAIVADVRNKIAFLRTQYNEQINKVKQGFALSTLPPVQLPPPPPSPEILMQQFLGRPLVKESFFRPILTVPQMPAVCPGVVSATGQPRAPLMTGIAWALPAPVGDAVPPSAGLRSDPSIMNWERITDRLKTAFPQQTRKELTDFLRKLKDAYGKSLSELTFDEIVCKISQFIDPKKSQSQGKSVSNVNCVSPSHSPSQPDAAQPPKPAWRPLTSQGPATWEGASNPDEEEEEEEPCVICHENLSPENLSVLPCAHKFHAQCIRPWLMQQGTCPTCRLHVLLPEEFPGHPSRQLPKI
partner: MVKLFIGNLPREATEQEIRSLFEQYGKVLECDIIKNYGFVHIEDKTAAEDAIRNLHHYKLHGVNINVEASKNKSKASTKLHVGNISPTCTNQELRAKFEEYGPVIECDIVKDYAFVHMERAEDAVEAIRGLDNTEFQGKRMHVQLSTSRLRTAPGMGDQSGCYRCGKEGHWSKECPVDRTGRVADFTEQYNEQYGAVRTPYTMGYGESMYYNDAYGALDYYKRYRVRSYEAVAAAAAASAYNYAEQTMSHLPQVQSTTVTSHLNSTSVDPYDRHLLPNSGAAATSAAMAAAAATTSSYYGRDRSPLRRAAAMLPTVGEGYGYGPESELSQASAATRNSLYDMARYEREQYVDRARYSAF
B9: Cilium assembly protein DZIP1L (Homo sapiens), Q8IYY4 (parent)
chain: MQSPAATAEGLSGPLFGAYTFPTFKFQPRHDSMDWRRISTLDVDRVARELDVATLQENIAGITFCNLDREVCSRCGQPVDPALLKVLRLAQLIIEYLLHCQDCLSASVAQLEARLQTSLGQQQRGQQELGRQADELKGVREESRRRRKMISTLQQLLMQTGTHSYHTCHLCDKTFMNATFLRGHIQRRHAGVAEGGKQKKQEQPVEEVLEELRAKLKWTQGELEAQREAERQRQLQEAELIHQREIEAKKEFDKWKEQEWTKLYGEIDKLKKLFWDEFKNVAKQNSTLEEKLRALQSHSVMESKLGSLRDEESEEWLRQARELQALREKTEIQKTEWKRKVKELHEEHMAEKKELQEENQRLQASLSQDQKKAAAQSQCQISTLRAQLQEQARIIASQEEMIQSLSLRKVEGIHKVPKAVDTEEDSPEEEMEDSQDEQHKVLAALRRNPTLLKHFRPILEDTLEEKLESMGIRKDAKGISIQTLRHLESLLRVQREQKARKFSEFLSLRGKLVKEVTSRAKERQENGAVVSQPDGQPSVKSQQSTLVTREAQPKTRTLQVALPSTPAEPPPPTRQSHGSHGSSLTQVSAPAPRPGLHGPSSTPPSSGPGMSTPPFSSEEDSEGDRVQRVSLQPPKVPSRMVPRPKDDWDWSDTETSEENAQPPGQGSGTLVQSMVKNLEKQLEAPAKKPAGGVSLFFMPNAGPQRAATPGRKPQLSEDESDLEISSLEDLPLDLDQREKPKPLSRSKLPEKFGTGPQSSGQPRVPAW

Variants of: B1
Details: with creb3_human CREB3, O43889
Sequence of creb3_human CREB3, O43889 (O43889 whole entry): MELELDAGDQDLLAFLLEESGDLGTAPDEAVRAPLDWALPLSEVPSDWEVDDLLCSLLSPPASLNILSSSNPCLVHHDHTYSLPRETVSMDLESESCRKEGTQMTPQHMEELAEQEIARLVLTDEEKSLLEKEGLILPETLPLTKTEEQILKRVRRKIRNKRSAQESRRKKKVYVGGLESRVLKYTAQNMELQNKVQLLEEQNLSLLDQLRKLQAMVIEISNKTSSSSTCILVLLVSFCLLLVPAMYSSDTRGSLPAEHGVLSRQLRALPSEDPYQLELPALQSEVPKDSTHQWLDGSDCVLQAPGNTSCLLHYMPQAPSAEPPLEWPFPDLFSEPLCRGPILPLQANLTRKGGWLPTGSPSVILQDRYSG

Variant | effect of a mutation on the interaction
A115P | with no effect

Variants of: B2
Details: with hsbp1_human HSBP1, O75506

Variant | effect of a mutation on the interaction
E295K | disrupting interaction strength

Variants of: B3
Details: with aimp2_human AIMP2, Q13155

Variant | effect of a mutation on the interaction
E295K | disrupting interaction strength

Variants of: B4
Details: with cutc_human CUTC

Variant | effect of a mutation on the interaction
E295K | disrupting interaction strength

Variants of: B5
Details: with fhl3_human FHL3, Q13643

Variant | effect of a mutation on the interaction
E295K | disrupting interaction strength

Variants of: B6
Details: with zbt43_human ZBTB43, O43298

Variant | effect of a mutation on the interaction
E295K | disrupting interaction strength

Variants of: B7
Details: with wasc3_human WASHC3, Q9Y3C0

Variant | effect of a mutation on the interaction
R373C | with no effect

Variants of: B7
Details: with wasc3_human WASHC3, Q9Y3C0
Remark: another data set of the same source

Variant | effect of a mutation on the interaction
E202K | with no effect

Variants of: B8
Details: with rbm4b_human RBM4B

Variant | effect of a mutation on the interaction
M1032R | disrupting interaction strength

Variants of: B9
Details: with cep76_human CEP76, Q8TAP6
Sequence of cep76_human CEP76, Q8TAP6 (Q8TAP6 whole entry): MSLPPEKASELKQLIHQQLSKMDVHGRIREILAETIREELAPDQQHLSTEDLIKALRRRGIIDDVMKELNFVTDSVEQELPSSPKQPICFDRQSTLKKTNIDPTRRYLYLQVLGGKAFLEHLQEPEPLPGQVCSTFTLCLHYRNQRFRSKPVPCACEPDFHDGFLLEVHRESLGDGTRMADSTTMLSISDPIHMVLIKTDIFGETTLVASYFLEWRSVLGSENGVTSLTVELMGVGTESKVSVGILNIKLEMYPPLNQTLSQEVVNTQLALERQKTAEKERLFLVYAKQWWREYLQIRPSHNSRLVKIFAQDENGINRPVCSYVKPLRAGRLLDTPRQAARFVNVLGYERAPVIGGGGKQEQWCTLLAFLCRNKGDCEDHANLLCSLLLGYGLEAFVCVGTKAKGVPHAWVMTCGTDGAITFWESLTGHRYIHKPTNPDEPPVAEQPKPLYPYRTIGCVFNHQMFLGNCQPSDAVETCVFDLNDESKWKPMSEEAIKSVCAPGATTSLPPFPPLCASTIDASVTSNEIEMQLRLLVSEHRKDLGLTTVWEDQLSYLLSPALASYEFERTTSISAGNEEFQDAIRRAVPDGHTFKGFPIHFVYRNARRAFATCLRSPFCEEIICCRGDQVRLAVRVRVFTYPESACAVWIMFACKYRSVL

Variant | effect of a mutation on the interaction
R643W | with no effect
